{"source": "patent US20240398993A1", "about": "“SMALL MOLECULE-REGULATED GENE EXPRESSION SYSTEM” (Outpace Bio, Inc., priority 2021, published 2024)", "molecules": {"B1": {"name": "ZFHIV2: zinc finger DNA binding domain fused to NS3a (NS3a-ZFHIV2, SEQ ID NO: 71) (protein)", "chain": "KKKGSVVIVGRINLSGDTAYAQQTRGEEGCQETSQTGRDKNQVEGEVQIVSTATQTFLATSINGVLWTVYHGAGTRTIASPKGPVTQMYTNVDKDLVGWQAPQGSRSLTPCTCGSSDLYLVTRHADVIPVRRRGDSRGSLLSPRPISYLKGSAGGPLLCPAGHAVGIFRAAVSTRGVAKAVDFIPVESLETTMRSPGSGAAASGGGGSGGGGSGGTPPHERPFQCRICMRNFSNNAMLVRHTRTHTGEKPFQCRICMRNFSLSQTLQRHLRTHTGEKPFQCRICMRNFSMQGNLSRHLKTHLRGS", "modifications": "Synthetic polypeptide NS3a-ZFHIV2"}, "B2": {"name": "ANR-SPOP: E3 ligase SPOP fused to the apo-NS3a reader ANR, SEQ ID NO: 157, expressed from IPV18 or TFV23 (protein)", "chain": "GELDELVYLLDGPGYDPIHSDVVTRGGSHLFNFSGSSGGSGVNISGQNTMNMVKVPECRLADELGGLWENSRFTDCCLCVAGQEFQAHKAILAARSPVFSAMFEHEMEESKKNRVEINDVEPEVFKEMMCFIYTGKAPNLDKMADDLLAAADKYALERLKVMCEDALCSNLSVENAAEILILADLHSADQLKTQAVDFINYHASDVLETSGWKSMVVSHPHLVAEAYRSLASAQCPFLGPPRKRLKQS", "modifications": "Synthetic polypeptide ANR-SPOP"}, "B3": {"name": "p65: transcriptional activation domain fused to DNCR2 (SEQ ID NO: 51) (protein)", "chain": "SSDEEEARELIERAKEAAERAQEAAERTGDPRVRELARELKRLAQEAAEEVKRDPSSSDVNEALKLIVEAIEAAVDALEAAERTGDPEVRELARELVRLAVEAAEEVQRNPSSSDVNEALHSIVYAIEAAIFALEAAERTGDPEVRELARELVRLAVEAAEEVQRNPSSRNVEHALMRIVLAIYLAEENLREAEESGDPEKREKARERVREAVERAEEVQRDPSGWLNHSGGGSGVDGSPKKKRKVGSVLPQAPAPAPAPAMVSALAQAPAPVPVLAPGPPQAVAPPAPKPTQAGEGTLSEALLQLQFDDEDLGALLGNSTDPAVFTDLASVDNSEFQQLLNQGIPVAPHTTEPMLMEYPEAITRLVTGAQRPPDPAPAPLGAPGLPNGLLSGDEDFSSIADMDFSALL", "modifications": "Synthetic polypeptide DNCR2-p65mini"}, "B4": {"name": "p65-HSF1: transcriptional activation domain of all-human components fused to DNCR2 (SEQ ID NO: 52) (protein)", "chain": "SSDEEEARELIERAKEAAERAQEAAERTGDPRVRELARELKRLAQEAAEEVKRDPSSSDVNEALKLIVEAIEAAVDALEAAERTGDPEVRELARELVRLAVEAAEEVQRNPSSSDVNEALHSIVYAIEAAIFALEAAERTGDPEVRELARELVRLAVEAAEEVQRNPSSRNVEHALMRIVLAIYLAEENLREAEESGDPEKREKARERVREAVERAEEVQRDPSGWLNHSGGGSGVDGSPKKKRKVGSVLPQAPAPAPAPAMVSALAQAPAPVPVLAPGPPQAVAPPAPKPTQAGEGTLSEALLQLQFDDEDLGALLGNSTDPAVFTDLASVDNSEFQQLLNQGIPVAPHTTEPMLMEYPEAITRLVTGAQRPPDPAPAPLGAPGLPNGLLSGDEDFSSIADMDFSALLSGSGGFSVDTSALLDLFSPSVTVPDMSLPDLDSSLASIQELLSPQEPPRPPEAENSSPDSGKQLVHYTAQPLFLLDPGSVDTGSNDLPVLFELGEGSYFSEGDGFAEDPTISLLTGSEPPKAKDPTVS", "modifications": "Synthetic polypeptide DNCR2-p65mini-HSF1"}}, "key": {"HEK293 cells": {"tested_on": "HEK293 cells", "assay": "Danoprevir-induced EGFP reporter expression in transduced HEK293 cells, flow cytometry", "assay_type": "cell-based"}, "Jurkat cells": {"tested_on": "Jurkat cells", "assay": "Danoprevir-induced GFP/EGFP reporter expression in transduced Jurkat cells, flow cytometry", "assay_type": "cell-based", "conditions": "for induced GFP expression (gMFI): 500 nM danoprevir 24 hours, ZF DBD-NS3a / DNCR2-TAD panel, YB_TATA minimal promoter, FIG. 11"}, "[1]": {"conditions": "titration of danoprevir, IPV16/TFV1 versus IPV16/TFV23, FIG. 18"}}, "note": "“Also recorded” adds a separate entry of the source.", "data": [{"molecule": "CC(C)(C)OC(=O)N[C@H]1CCCCC/C=C\\[C@@H]2C[C@@]2(C(=O)NS(=O)(=O)C2CC2)NC(=O)[C@@H]2C[C@@H](OC(=O)N3Cc4cccc(F)c4C3)CN2C1=O", "note": "[danoprevir, (2R,6S,12Z,13aS,14aR,16aS)-14a-[(Cyclopropylsulfonyl)carbamoyl]-6-({[(2-methyl-2-propanyl)oxy]carbonyl}amino)-5,16-dioxo-1,2,3,5,6,7,8,9,10,11,13a,14,14a,15,16,16a-hexadecahydrocyclopropa[e]pyrrolo[1,2-a][1,4]diazacyclopentadecin-2-yl 4-fluoro-1,3-dihydro-2H-isoindole-2-carboxylate, reference compound]", "values": [{"measurement": "danoprevir EC50 of EGFP expression", "setting": "HEK293 cells; [1]", "value": "equivalent"}, {"measurement": "maximal EGFP expression levels", "setting": "HEK293 cells; [1]", "value": "equivalent"}]}, {"molecule": "B1", "values": [{"measurement": "induced GFP expression (gMFI)", "setting": "Jurkat cells", "value": "highest induced GFP levels"}, {"measurement": "induction of GFP expression (gMFI), 12×RE versus 6×RE", "setting": "Jurkat cells; DNCR2-VPRmini, FIG. 12", "value": "lower induction"}, {"measurement": "induction of GFP expression (gMFI), leucine zipper (LZ) between NS3a and ZF versus direct fusion", "setting": "Jurkat cells; DNCR2-VPRmini, TFV19, TFV20, FIG. 12", "value": "higher maximal induction"}]}, {"molecule": "B2", "values": [{"measurement": "maximal danoprevir-induced EGFP expression, element expressed inducibly from the inducible promoter vector", "setting": "HEK293 cells; 100 nM danoprevir, HEK293 cells, plot 1725", "value": "reduced the maximal danoprevir-induced EGFP expression"}, {"measurement": "danoprevir-induced EGFP expression, element expressed from the transcription factor vector", "setting": "HEK293 cells; 100 nM danoprevir, HEK293 cells, plot 1730", "value": "maintaining high danoprevir-induced expression"}, {"measurement": "background EGFP expression level, fold lower than the system without ANR-SPOP", "setting": "HEK293 cells; DMSO, IPV16/TFV23 versus IPV16/TFV1, plot 1800", "value": "about 3 times"}, {"measurement": "background (leaky) EGFP expression, DMSO", "setting": "HEK293 cells; HEK293 cells, compared to wild type cells, FIG. 16-18", "value": "effectively removed any leaky background expression of EGFP; also recorded: indistinguishable from wild type HEK293 cells"}]}, {"molecule": "B3", "values": [{"measurement": "induced GFP expression (gMFI)", "setting": "Jurkat cells", "value": "very weak"}]}, {"molecule": "B4", "values": [{"measurement": "induced GFP expression (gMFI)", "setting": "Jurkat cells", "value": "moderate induction levels"}]}]}
